# How the values were obtained:
# [1] = target: T1, C. reinhardtii Rubisco small subunit 1 (S1Cr), mature (Chlamydomonas reinhardtii, UniProt P00873 46-185); experiment: yeast two-hybrid (FIG. 4J)
# T1 construct: also called RbcS1; Cre02.g120100.t1.2
# Description: (§1) Competent yeast cells (Y2H Gold, Clontech) were prepared from a 50 ml culture grown in YPDA medium supplemented with kanamycin (50 μg ml⁻¹). Cells were washed with ddH2O and a lithium acetate/TE solution (100 mM LiAc, 10 mM Tris-HCl [pH 7.5], 1 mM EDTA) before re-suspending in lithium acetate/TE solution. Cells were then co-transformed with binding and activation domain vectors by mixing 50 μl of competent cells with 1 μg of each plasmid vector and a PEG solution (100 mM LiAc, 10 mM Tris-HCl [pH 7.5], 1 mM EDTA, 40% [v/v] PEG 4000). Cells were incubated at 30° C. for 30 min, then subjected to a heat shock of 42° C. for 20 min. The cells were centrifuged, re-suspended in 500 μl YPDA and incubated at 30° C. for ca 90 min, then centrifuged and washed in TE (10 mM Tris-HCl [pH 7.5], 1 mM EDTA). The pellet was re-suspended in 200 μl TE, spread onto SD-L-W (standard dextrose medium (minimal yeast medium) lacking leucine and tryptophan, Anachem) and grown for 3 days at 30° C. Ten to fifteen of the resulting colonies were pooled per co-transformation and grown in a single culture for 24 hrs. The following day 1 ml of culture was harvested, cell density (OD₆₀₀) measured, centrifuged and then diluted in TE to give a final OD₆₀₀ of 0.5 or 0.1.
# (§2) Yeast cultures were then plated onto SD-L-W (yeast synthetic minimal media lacking leucine (L) and tryptophan (W)) and SD-L-W-H (yeast synthetic minimal media lacking L, W, and histidine(H)) (Anachem). Yeast expressing both binding and activation domain constructs was grown on SD-L-W to confirm presence of both plasmids. To assess interaction strength, yeast was plated onto SD-L-W-H with differing concentrations of the HIS3 inhibitor 3-aminotriazole (3-AT). These plates were then incubated for 3 days before assessing for presence or absence of growth, to perform a semi-quantitative yeast two-hybrid assay as in van Nues and Beggs (van Nues and Beggs, Genetics (2000) 157: 1451-1467). The same yeast transformation was used for each interaction study. Different colonies on the same yeast transformation plate were considered independent biological replicates (as for E. coli). Two biological replicates (top and bottom row for each interaction) were spotted from different liquid culture concentrations (0.5 and 0.1 OD). Each interaction experiment was performed at least twice.
# [2] = target: T2, 1AAtMOD (α-helices): A. thaliana SSU 1A with its two α-helices replaced with C. reinhardtii α-helices (Arabidopsis thaliana with parts of …); experiment: yeast two-hybrid (FIG. 5E)
# T2 construct: also called pGADT7_1AAtMOD(α-helices); hybrid 1A SSU
# Description: as §1, §2
# [3] = target: T1, C. reinhardtii Rubisco small subunit 1 …; experiment: yeast two-hybrid (FIG. 5E)
# Description: as §1, §2
# [4] = target: 1AAt::YFP^N (A. thaliana SSU 1A fused at the C-terminus to YFP^N) (Arabidopsis thaliana, UniProt P10795 56-180); experiment: BiFC in N. benthamiana; a YFP signal was seen and is put down to self-assembly of the split YFP halves
# Description: (§3) Bimolecular fluorescence complementation analysis (BiFC) was carried out to provide additional information about the EPYC1-Rubisco interaction in vivo. Three Rubisco SSUs (1AAt, S2Cr and 1AAtMOD) and EPYC1, each fused at the C-terminus to either YFP^N or YFP^C were transiently co-expressed in N. benthamiana (Walter, et al., Plant J. (2004) 40: 428-438).
# [5] = target: T3, 1AAt::YFP^C (A. thaliana SSU 1A fused at the C-terminus to YFP^C) (Arabidopsis thaliana, UniProt P10795 56-180); experiment: as above
# Description: as §3
# [6] = target: T3, 1AAt::YFP^C (A. thaliana SSU 1A fused …); experiment: BiFC in N. benthamiana
# Description: as §3
Binder,binding result [1],binding result [3],other results
"EPYC1 N-terminus plus first repeat region (N-ter+1rep) (other, also called pGBKT7_N-ter + 1rep EPYC1) MATISSMRVGAASRVVVSGRVKTVKVAARGSWRESSTATVQASRASSATNRVSPTRSVLPANWRQELESLRNGNGSSSAASSAPAPARSSSASWRDAAPASSAPARSSSASKKA",binds,–,–
"EPYC1 N-terminus, first and second repeat regions (N-ter+2reps) (other, also called pGBKT7_N-ter + 2reps EPYC1) MATISSMRVGAASRVVVSGRVKTVKVAARGSWRESSTATVQASRASSATNRVSPTRSVLPANWRQELESLRNGNGSSSAASSAPAPARSSSASWRDAAPASSAPARSSSASKKAVTPSRSALPSNWKQELESLRSSSPAPASSAPAPARSSSASWRDAAPASSAPARSSSSKKA",binds,–,–
"EPYC1 N-terminus, first to third repeat regions (N-ter+3reps) (other, also called pGBKT7_N-ter + 3reps EPYC1) MATISSMRVGAASRVVVSGRVKTVKVAARGSWRESSTATVQASRASSATNRVSPTRSVLPANWRQELESLRNGNGSSSAASSAPAPARSSSASWRDAAPASSAPARSSSASKKAVTPSRSALPSNWKQELESLRSSSPAPASSAPAPARSSSASWRDAAPASSAPARSSSSKKAVTPSRSALPSNWKQELESLRSSSPAPASSAPAPARSSSASWRDAAPASSAPARSSSASKKA",binds,–,–
"EPYC1 N-terminus and all four repeat regions (N-ter+4reps) (other, also called pGBKT7_N-ter + 4reps EPYC1) MATISSMRVGAASRVVVSGRVKTVKVAARGSWRESSTATVQASRASSATNRVSPTRSVLPANWRQELESLRNGNGSSSAASSAPAPARSSSASWRDAAPASSAPARSSSASKKAVTPSRSALPSNWKQELESLRSSSPAPASSAPAPARSSSASWRDAAPASSAPARSSSSKKAVTPSRSALPSNWKQELESLRSSSPAPASSAPAPARSSSASWRDAAPASSAPARSSSASKKAVTPSRSALPSNWKQELESLRSNSPAPASSAPAPARSSSASWRDAPASSSSSSADKA",binds,–,–
GTNPWTGKSKPEIKRTALPADWRKGL (also called C-terminal tail; pGBKT7_C-ter EPYC1) [EPYC1 C-terminus (C-ter)],binds,–,–
"synthetic EPYC1 4 reps (four tandem copies of the first repeat region) (designed binder, also called pGBKT7_synthEPYC1 4reps) VSPTRSVLPANWRQELESLRNGNGSSSAASSAPAPARSSSASWRDAAPASSAPARSSSASKKAVSPTRSVLPANWRQELESLRNGNGSSSAASSAPAPARSSSASWRDAAPASSAPARSSSASKKAVSPTRSVLPANWRQELESLRNGNGSSSAASSAPAPARSSSASWRDAAPASSAPARSSSASKKAVSPTRSVLPANWRQELESLRNGNGSSSAASSAPAPARSSSASWRDAAPASSAPARSSSASKKA",–,binds,binding result [2]: binds
"synthetic EPYC1 1 rep (first repeat region of EPYC1, one copy) (other, also called native 1 rep variant; EPYC1 1 rep (wildtype)) VSPTRSVLPANWRQELESLRNGNGSSSAASSAPAPARSSSASWRDAAPASSAPARSSSASKKA",–,binds,–
"synthetic EPYC1 modified α-helix 1 rep (first repeat region with a G-Q substitution near the α-helix) (designed binder, also called pGBKT7_synthEPYC1 modified α-helix 1rep) VSPTRSVLPANWRQELESLRNQNGSSSAASSAPAPARSSSASWRDAAPASSAPARSSSASKKA",–,binds,–
"synthetic EPYC1 α-helix knockout A (first repeat region with a point mutation in the α-helix) (designed binder, also called pGBKT7_synthEPYC1 α-helix knockout 1 (probably)) VSPTRSVLPANWRQELESRRNGNGSSSAASSAPAPARSSSASWRDAAPASSAPARSSSASKKA",–,no binding,–
"synthetic EPYC1 α-helix knockout B (first repeat region with a point mutation in the α-helix) (designed binder, also called pGBKT7_synthEPYC1 α-helix knockout 2 (probably)) VSPTRSVLPANWRQWLESLRNGNGSSSAASSAPAPARSSSASWRDAAPASSAPARSSSASKKA",–,no binding,–
"EPYC1 N-terminus (N-ter) (other, also called pGBKT7_N-ter EPYC1) MATISSMRVGAASRVVVSGRVKTVKVAARGSWRESSTATVQASRASSATNR",no binding,–,–
"synthetic EPYC1 2 α-helices 1 rep (first repeat region with an additional α-helix inserted) (designed binder, also called pGBKT7_synthEPYC1 2α-helices 1rep) VSPTRSVLPANWRQELESLRNNWRQELESLRNGNGSSSAASSAPAPARSSSASWRDAAPASSAPARSSSASKKA",–,no binding,–
"EPYC1::YFP^C (EPYC1 fused at the C-terminus to YFP^C, with 1AAt transit peptide) (other, Expressed transiently in N. benthamiana with the 1AAt transit peptide at the N-terminus; processing in the plant not determined; also called pB7_1AAtTP::EPYC1::YFP^C; not shown: YFP^C half of split YFP (primer name YFPc155)) MATISSMRVGAASRVVVSGRVKTVKVAARGSWRESSTATVQASRASSATNRVSPTRSVLPANWRQELESLRNGNGSSSAASSAPAPARSSSASWRDAAPASSAPARSSSASKKAVTPSRSALPSNWKQELESLRSSSPAPASSAPAPARSSSASWRDAAPASSAPARSSSSKKAVTPSRSALPSNWKQELESLRSSSPAPASSAPAPARSSSASWRDAAPASSAPARSSSASKKAVTPSRSALPSNWKQELESLRSNSPAPASSAPAPARSSSASWRDAPASSSSSSADKAGTNPWTGKSKPEIKRTALPADWRKGL",–,–,binding result [4]: no binding
"EPYC1::YFP^N (EPYC1 fused at the C-terminus to YFP^N, with 1AAt transit peptide) (other, Expressed transiently in N. benthamiana with the 1AAt transit peptide at the N-terminus; processing in the plant not determined; also called pB7_1AAtTP::EPYC1::YFP^N; not shown: YFP^N half of split YFP (primer name YFPn173)) MATISSMRVGAASRVVVSGRVKTVKVAARGSWRESSTATVQASRASSATNRVSPTRSVLPANWRQELESLRNGNGSSSAASSAPAPARSSSASWRDAAPASSAPARSSSASKKAVTPSRSALPSNWKQELESLRSSSPAPASSAPAPARSSSASWRDAAPASSAPARSSSSKKAVTPSRSALPSNWKQELESLRSSSPAPASSAPAPARSSSASWRDAAPASSAPARSSSASKKAVTPSRSALPSNWKQELESLRSNSPAPASSAPAPARSSSASWRDAPASSSSSSADKAGTNPWTGKSKPEIKRTALPADWRKGL",–,–,binding result [5]: no binding
"AtCP12::YFP^N (A. thaliana CP12 fused at the C-terminus to YFP^N) (other, Negative control of the BiFC assay; also called pICH47732_CP12At::YFP^N; not shown: YFP^N half of split YFP) AAPEGGISDVVEKSIKEAQETCAGDPVSGECVAAWDEVEELSAAASHARDKKKADGSDPLEEYCKDNPETNECRTYDN",–,–,binding result [6]: no binding

# — patent US20220282268A1 (UNIVERSITY COURT OF THE UNIVERSITY OF EDINBURGH, published 2022)
